Series [1] addresses T1, TRF2 (UniProt Q15554 1-542). Description: EMSA.
Another series concerns the target TRF1 (UniProt P54274 1-439). Description: EMSA. On the technique in general: In EMSA bound probe runs differently from free probe, usually more slowly.
The target in the next series is TRF2ΔB (UniProt Q15554 87-542). Description: EMSA.
For series [2], the target named is T1, TRF2. Description: EMSA. This is another data set of the same source.
The target of series [3] is T1, TRF2. Description: EMSA. This is another data set of the same source.
Series [4] addresses T1, TRF2. Description: pull-down, immunoblot. On the technique in general: A western blot detects proteins with antibodies after separation by electrophoresis.

Consider four molecules from article PMC4081078.

T1 sequence (Q15554 whole entry): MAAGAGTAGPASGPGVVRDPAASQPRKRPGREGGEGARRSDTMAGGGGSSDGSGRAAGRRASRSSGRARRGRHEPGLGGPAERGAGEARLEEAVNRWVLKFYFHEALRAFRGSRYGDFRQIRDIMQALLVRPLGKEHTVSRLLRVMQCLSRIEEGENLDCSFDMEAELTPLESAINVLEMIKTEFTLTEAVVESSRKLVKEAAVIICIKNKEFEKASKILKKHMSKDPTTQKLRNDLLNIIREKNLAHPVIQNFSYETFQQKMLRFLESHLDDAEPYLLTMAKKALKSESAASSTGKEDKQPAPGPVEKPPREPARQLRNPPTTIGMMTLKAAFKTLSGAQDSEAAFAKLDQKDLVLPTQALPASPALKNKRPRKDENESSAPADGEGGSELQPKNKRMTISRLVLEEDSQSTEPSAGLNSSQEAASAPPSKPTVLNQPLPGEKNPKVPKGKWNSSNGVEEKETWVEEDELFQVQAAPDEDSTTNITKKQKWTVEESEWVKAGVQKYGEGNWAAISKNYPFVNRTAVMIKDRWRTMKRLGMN
Sequence of TRF2ΔB (Q15554 87-542, stated change not applied): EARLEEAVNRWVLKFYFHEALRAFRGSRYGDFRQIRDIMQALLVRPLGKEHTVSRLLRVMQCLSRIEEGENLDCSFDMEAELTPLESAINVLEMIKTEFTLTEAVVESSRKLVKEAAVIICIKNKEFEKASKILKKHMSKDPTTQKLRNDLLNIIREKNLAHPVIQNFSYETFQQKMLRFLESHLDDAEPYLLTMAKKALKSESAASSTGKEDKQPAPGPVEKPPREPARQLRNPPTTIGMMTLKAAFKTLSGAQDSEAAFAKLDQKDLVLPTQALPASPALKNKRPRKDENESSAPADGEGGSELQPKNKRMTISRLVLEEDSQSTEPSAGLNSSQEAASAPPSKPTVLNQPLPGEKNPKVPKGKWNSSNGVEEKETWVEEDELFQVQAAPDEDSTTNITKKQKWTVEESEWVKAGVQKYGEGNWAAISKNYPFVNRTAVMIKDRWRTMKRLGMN
Sequence of TRF1 (P54274 whole entry): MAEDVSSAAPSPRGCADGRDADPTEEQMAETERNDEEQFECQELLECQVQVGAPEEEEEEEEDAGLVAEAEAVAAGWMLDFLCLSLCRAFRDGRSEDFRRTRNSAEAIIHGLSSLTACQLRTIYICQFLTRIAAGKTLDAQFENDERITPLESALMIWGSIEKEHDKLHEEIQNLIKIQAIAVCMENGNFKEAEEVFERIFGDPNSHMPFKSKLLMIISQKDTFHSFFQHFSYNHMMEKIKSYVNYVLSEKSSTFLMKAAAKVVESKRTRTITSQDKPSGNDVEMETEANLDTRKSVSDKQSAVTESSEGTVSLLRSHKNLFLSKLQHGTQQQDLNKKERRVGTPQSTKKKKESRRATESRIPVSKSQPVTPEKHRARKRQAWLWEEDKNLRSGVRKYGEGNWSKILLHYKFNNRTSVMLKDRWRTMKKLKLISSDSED

B1: *G77telo/C38telo (dsDNA)
DNA 1: AGCTGAGCATGTCCAGACATGTCCTAGGGTTAGGGTTAGGGTTAGGGTTAGGGTTAGGGTTAGGGTTAGGGTTAGGG
DNA 2: TAACCCTAACCCTAGGACATGTCTGGACATGCTCAGCT
modifications: phosphorothioate after nt 1 of each strand
For the molecule B1, in the series with TRF2 [1], the binding result is “binds”.

B2: *G77telo/C77telo (dsDNA)
DNA 1: AGCTGAGCATGTCCAGACATGTCCTAGGGTTAGGGTTAGGGTTAGGGTTAGGGTTAGGGTTAGGGTTAGGGTTAGGG
DNA 2: CCCTAACCCTAACCCTAACCCTAACCCTAACCCTAACCCTAACCCTAACCCTAGGACATGTCTGGACATGCTCAGCT
modifications: phosphorothioate after nt 1 of each strand
For B2, the binding result in the series with TRF1, in the series with TRF2ΔB and in the series with TRF2 [2] was “binds” throughout.

B3: *G77telo/C50telo (dsDNA)
DNA 1: AGCTGAGCATGTCCAGACATGTCCTAGGGTTAGGGTTAGGGTTAGGGTTAGGGTTAGGGTTAGGGTTAGGGTTAGGG
DNA 2: TAACCCTAACCCTAACCCTAACCCTAGGACATGTCTGGACATGCTCAGCT
modifications: phosphorothioate after nt 1 of each strand
In the case of B3, the binding result in the series with TRF2ΔB and with TRF2 [3] was “binds” in each case.

B4: b-G68telo/C50telo (dsDNA)
DNA 1: AGCTGAGCATGTCCAGACATGTCCTAGGGTTAGGGTTAGGGTTAGGGTTAGGGTTAGGGTTAGGGTTA
DNA 2: TAACCCTAACCCTAACCCTAACCCTAGGACATGTCTGGACATGCTCAGCT
modifications: phosphorothioate after nt 1 of each strand
For B4, in the series with TRF2 [4], the binding result is reported as “binds”.
